From US20250026850A1 (TRISHULA THERAPEUTICS, published 2025) come the findings set out here.

Experiment [1] has as its target T1, cynomolgus macaque (Macaca fascicularis) CD39 on cells (cynomolgus macaque (Macaca fascicularis), UniProt P49961 7-510 (human entry)).
T1 construct: CHO cells engineered to express cyno CD39, or primary cyno B cells and monocytes; also called cyno CD39; cCD39
T1 chain: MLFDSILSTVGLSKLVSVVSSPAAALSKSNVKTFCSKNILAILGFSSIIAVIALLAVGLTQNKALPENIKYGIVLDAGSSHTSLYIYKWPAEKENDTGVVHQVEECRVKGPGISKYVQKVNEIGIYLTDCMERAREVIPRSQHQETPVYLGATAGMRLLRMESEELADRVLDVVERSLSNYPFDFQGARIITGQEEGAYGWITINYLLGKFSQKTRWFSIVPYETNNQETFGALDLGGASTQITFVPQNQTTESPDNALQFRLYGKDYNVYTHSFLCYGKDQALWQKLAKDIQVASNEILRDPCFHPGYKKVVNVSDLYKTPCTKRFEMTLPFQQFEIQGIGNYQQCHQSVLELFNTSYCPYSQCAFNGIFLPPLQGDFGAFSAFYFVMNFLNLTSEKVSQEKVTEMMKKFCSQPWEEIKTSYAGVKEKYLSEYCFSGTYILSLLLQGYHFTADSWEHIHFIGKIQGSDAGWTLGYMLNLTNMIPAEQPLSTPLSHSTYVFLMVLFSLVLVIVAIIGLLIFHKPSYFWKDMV
The experiment is described as follows: flow cytometry, 100 nM IgG, cCD39-CHO cells; MFI ratio to parental CHO. As to the method: (§1) 100 nanomolar IgGs (each antibody is indicated as a unique clone number in the FIG.) were incubated at […] 30 minutes on ice in phosphate buffered saline (PBS) with parental CHO cells or CHO cells engineered to express either human or cynomolgus macaque (Macaca fascicularis) CD39 (CHO CD39 cells). Cells were then washed with ice cold PBS and incubated with a fluorescently labeled goat-anti-human IgG for 20 minutes on ice. Cells were washed and resuspended in ice cold PBS prior to analysis by flow cytrometry.

Experiment [2] deals with T2, human CD39 on cells (human, UniProt P49961 1-510).
T2 construct: One molecule for all cells that carry human CD39; the cell is named under assay; also called hCD39; cellular CD39
T2 sequence: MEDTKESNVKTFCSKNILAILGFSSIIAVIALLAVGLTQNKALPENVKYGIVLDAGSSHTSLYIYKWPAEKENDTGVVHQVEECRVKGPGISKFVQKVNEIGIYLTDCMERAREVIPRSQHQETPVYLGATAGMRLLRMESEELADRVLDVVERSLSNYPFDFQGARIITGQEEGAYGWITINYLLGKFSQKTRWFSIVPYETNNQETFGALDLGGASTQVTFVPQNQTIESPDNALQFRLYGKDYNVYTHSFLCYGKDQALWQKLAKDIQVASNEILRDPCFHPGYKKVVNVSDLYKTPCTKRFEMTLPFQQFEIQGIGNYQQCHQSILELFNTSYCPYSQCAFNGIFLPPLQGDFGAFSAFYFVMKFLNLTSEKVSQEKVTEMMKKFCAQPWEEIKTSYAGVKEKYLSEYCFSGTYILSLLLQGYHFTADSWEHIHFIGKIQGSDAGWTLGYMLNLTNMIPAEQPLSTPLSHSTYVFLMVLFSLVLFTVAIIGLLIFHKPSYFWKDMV
Briefly: flow cytometry, 100 nM IgG, hCD39-CHO cells; MFI ratio to parental CHO. Here is the method: as §1
(A flow cytometer gives signals particle by particle.)

B1: 27579 (antibody, V domains shown)
VH: QVQLVQSGAEVKEPGASVKVSCKAPGYTFTSYYMHWVRQAPGQGLEWMGVINPSGGSTSYAQKFQGRVTMTRDTSTSTVYMELSSLRSEDTAVYYCARGKREGGTEYLRHWGQGTLVTVSS
VL: EIVLTQSPGTLSLSPGERATLSCRASQSVSSSYLAWYQQKPGQAPRLLIYGASSRATGIPDRFSGSGSGTDFTLTISRLEPEDFAVYYCQQYHSYITFGGGTKVEIK
As for B1, the “Cell Binding (FOB)” value in experiment [1] was determined as 2670 FOB; in experiment [2] it was 1950 FOB.

B2: 31414 (antibody, human IgG4 S228P, kappa, V domains shown)
VH: QVQLVQSGAEVKKPGASVKVSCKASGYTFKSYEMHWVRQAPGQGLEWMGRINPSVGSTWYAQKFQGRVTMTRDTSTSTVYMELSSLRSEDTAVYYCARGKREGGTEYLRNWGQGTLVTVSS
VL: EIVLTQSPGTLSLSPGERATLSCRASQSVSSSYLAWYQQKPGQAPRLLIYGASSRATGIPDRFSGSGSGTDFTLTISRLEPEDFAVYYCQQYHSYITFGGGTKVEIKR
In the case of B2, the “Cell Binding (FOB)” value in experiment [1] came out at 3570 FOB; in experiment [2], 1240 FOB.

B3: 31429 (antibody, V domains shown)
VH: QVQLVQSGAEVKKPGASVKVSCKASGYTFVSYFMHWVRQAPGQGLEWMGSINPRGGSTSYAQKFQGRVTMTRDTSTSTVYMELSSLRSEDTAVYYCARGKREGGTEYLRHWGQGTLVTVSS
VL: EIVLTQSPGTLSLSPGERATLSCRASQYVSSSYLAWYQQKPGQAPRLLIYYASNRATGIPDRFSGSGSGTDFTLTISRLEPEDFAVYYCQQYHSGITFGGGTKVEIK
Consider B3, for which the “Cell Binding (FOB)” value in experiment [1] amounted to 3800 FOB; in experiment [2], 1290 FOB.

B4: 31431 (antibody, V domains shown)
VH: QVQLVQSGAEVKKPGASVKVSCKASGYTFTSYQMHWVRQAPGQGLEWMGRINPSGGSTWYAQKFQGRVTMTRDTSTSTVYMELSSLRSEDTAVYYCARGKREGGTEYLRHWGQGTLVTVSS
VL: EIVLTQSPGTLSLSPGERATLSCRASQSVASSYLAWYQQKPGQAPRLLIYGASNRHTGIPDRFSGSGSGTDFTLTISRLEPEDFAVYYCQQYHGGITFGGGTKVEIK
For B4, the entries for the “Cell Binding (FOB)” value in experiment [1] and in experiment [2] were 3530 FOB and 1240 FOB, respectively.

B5: 29872 (antibody, V domains shown)
VH: QVQLVQSGAEVKKPGASVKVSCKASGYTFKSYEMHWVRQAPGQGLEWMGRINPSVGSTWYAQKFQGRVTMTRDTSTSTVYMELSSLRSEDTAVYYCARGKREGGTEYLRHWGQGTLVTVSS
VL: EIVLTQSPGTLSLSPGERATLSCRASQSVSSSYLAWYQQKPGQAPRLLIYGASSRATGIPDRFSGSGSGTDFTLTISRLEPEDFAVYYCQQYHSYITFGGGTKVEIK
As to B5, the results for the “Cell Binding (FOB)” value in experiment [1] and in experiment [2] were 4190 FOB and 1450 FOB, respectively.

B6: 27549 (antibody, V domains shown)
VH: QVQLVESGGGVVQPGRSLRLSCAASGFTFSSYGMNWVRQAPGKGLEWVAVIWYDGSNKYYADSVKGRFTISRDNSKNTLYLQMNSLRAEDTAVYYCARDLGGYSYGEPYYYYYGMDVWGQGTTVTVSS
VL: EIVLTQSPGTLSLSPGERATLSCRASQSVSSDYLAWYQQKPGQAPRLLIYGASSRATGIPDRFSGSGSGTDFTLTISRLEPEDFAVYYCQQAHSSPYTFGGGTKVEIKR
Take B6: the “Cell Binding (FOB)” value in experiment [1] amounted to 566 FOB; in experiment [2] it was 822 FOB.

B7: 27535 (antibody, V domains shown)
VH: QVQLVQSGAEVKKPGSSVKVSCKASGGTFSSYAISWVRQAPGQGLEWMGGIIPIFGTANYAQKFQGRVTITADESTSTAYMELSSLRSEDTAVYYCARDTPRWRYHYFDYWGQGTLVTVSS
VL: EIVLTQSPATLSLSPGERATLSCRASQSVSSYLAWYQQKPGQAPRLLIYDASKRATGIPARFSGSGSGTDFTLTISSLEPEDFAVYYCQQVLNYPLTFGGGTKVEIKR
For the molecule B7, the entries for the “Cell Binding (FOB)” value in experiment [1] and in experiment [2] were 738 FOB and 301 FOB, respectively.
